Laboratory results published in publication doi:10.1101/2025.08.12.669882.

Molecular target: TG (triacylglycerol)
Assay: TG binding assay with purified proteins, TLC of radiolabeled TG
Details: 2.5 mol % TG; parent: est. 1.5; read off a plot

- response (relative to MBOAT7): 1.2
Substance: LDAC (m1 + m2) F57A; S61A; L105A; S109A
